Data taken from paper PMC3841738 (Genes & Development, 2013).

Target: the molecule itself
Experiment: SAXS

B1: NtrC1 ATPase domain (Aquifex aeolicus) (domain or fragment)
chain: LRKENELLRREKDLKEEEYVFESPKMKEILEKIKKISCAECPVLITGESGVGKEVVARLIHKLSDRSKEPFVALNVASIPRDIFEAELFGYEKGAFTGAVSSKEGFFELADGGTLFLDEIGELSLEAQAKLLRVIESGKFYRLGGRKEIEVNVRILAATNRNIKELVKEGKFREDLYYRLGVIEIEIPPLRERKEDIIPLANHFLKKFSRKYAKEVEGFTKSAQELLLSYPWYGNVRELKNVIERAVLFSEGKFIDRGELSCLVNSK
With B1 the “stoichiometry N” value was 7.
